Reference: publication PMC1249579, “RLIP76, a non-ABC transporter, and drug resistance in epilepsy” (BMC Neuroscience, 2005)

Legend:
Assay in all cases: purified protein
Assay type in all cases: biochemical, Homo sapiens
purified protein [1] = substrate: Nc1ncnc2c1ncn2[C@@H]1O[C@H](COP(=O)(O)OP(=O)(O)OP(=O)(O)O)[C@@H](O)[C@H]1O; details: co-substrate phenytoin held constant, MgCl2, pH 7.4
purified protein [2] = substrate: NC(=O)N1c2ccccc2C=Cc2ccccc21; details: ATP held constant, ATP-dependent transport, MgCl2, pH 7.4, labelled compound
purified protein [3] = substrate: O=C1NC(=O)C(c2ccccc2)(c2ccccc2)N1; details: ATP held constant, ATP-dependent transport, MgCl2, pH 7.4, labelled compound

B1: RLIP76 (Homo sapiens) (protein)
chain: MTECFLPPTSSPSEHRRVEHGSGLTRTPSSEEISPTKFPGLYRTGEPSPPHDILHEPPDVVSDDEKDHGKKKGKFKKKEKRTEGYAAFQEDSSGDEAESPSKMKRSKGIHVFKKPSFSKKKEKDFKIKEKPKEEKHKEEKHKEEKHKEKKSKDLTAADVVKQWKEKKKKKKPIQEPEVPQIDVPNLKPIFGIPLADAVERTMMYDGIRLPAVFRECIDYVEKYGMKCEGIYRVSGIKSKVDELKAAYDREESTNLEDYEPNTVASLLKQYLRDLPENLLTKELMPRFEEACGRTTETEKVQEFQRLLKELPECNYLLISWLIVHMDHVIAKELETKMNIQNISIVLSPTVQISNRVLYVFFTHVQELFGNVVLKQVMKPLRWSNMATMPTLPETQAGIKEEIRRQEFLLNCLHRDLQGGIKDLSKEERLWEVQRILTALKRKLREAKRQECETKIAQEIASLSKEDVSKEEMNENEEVINILLAQENEILTEQEELLAMEQFLRRQIASEKEEIERLRAEIAEIQSRQQHGRSETEEYSSESESESEDEEELQIILEDLQRQNEELEIKNNHLNQAIHEEREAIIELRVQLRLLQMQRAKAEQQAQEDEEPEWRGGAVQPPRDGVLEPKAAKEQPKAGKEPAKPSPSRDRKETSI
notes: pET30a(+), E. coli BL21(DE3); reconstituted in asolectin-cholesterol liposomes
B1 was tested, and the Km (purified protein [1]) was 1330 µM, the Km (purified protein [2]) was 0.25 µM and the Km (purified protein [3]) was 0.43 µM.
